Reference: US20120148586A1 (published 2012)

Target: GLP-1R (receptor addressed by the glucose-stimulated insulin secretion assay of Table 1)
Assay: cell-based or functional assay

B1: peptide of GAC-9 (not tethered to an antibody) (peptide)
peptide: HXEGTFTSDVSSYLEGQAAKEFIAWLVKXR
modifications: Aib at position 2 and Aib before the C-terminal R; linking residue K26 (so in the source)
- EC50 (µM), glucose-stimulated insulin secretion (GSIS) assay: 0.094 µM

B2: peptide of GAC-4 (not tethered to an antibody) (peptide)
peptide: HXEGTFTSDVSSYLEGQAAKEFIAWLVKGR
modifications: Aib at position 2; linking residue K26 (so in the source)
- EC50 (µM), glucose-stimulated insulin secretion (GSIS) assay: 0.041 µM
